Experimental data taken from US20190169289A1 (Scripps Research, published 2019).
Like-named read-outs stand apart in the source and are kept apart here. Ends that are not written are not given here.

Experiments:
[1] = biological target: T1, anti-GCN4 (52SR4 scFv) sCAR with CD8 hinge; assay: flow cytometry on sCAR-T cells
T1 construct: 273 is the protein without leader; also called sCAR (long); CD8 sCAR

[2] = biological target: T1, anti-GCN4 (52SR4 scFv) sCAR with CD8 …; assay: flow cytometry on CD8 sCAR-T cells, switch 30 min at 4 C, detected with PE-conjugated goat anti-human kappa chain antibody, MFI
Text: Cells were washed two times and analyzed using the Accuri flow cytometer (BD).

CD22 [3] = biological target: T2, CD22 (UniProt P20273 20-847, limits assumed); assay: cell-based or functional assay
CD22 [4] = biological target: T2, CD22; assay: cell-based or functional assay; remark: listed apart in the source
CD22 [5] = biological target: T2, CD22; assay: cell-based or functional assay; remark: listed apart in the source
CD22 [6] = biological target: T2, CD22; assay: cell-based or functional assay; remark: listed apart in the source
CD22 [7] = biological target: T2, CD22; assay: cell-based or functional assay; remark: listed apart in the source
CD22 [8] = biological target: T2, CD22; assay: cell-based or functional assay; remark: listed apart in the source
anti-Her2-FLAG switch = assay: ELISA, absorbance at 375nm, of anti-FLAG antibody 5B3 on the anti-Her2-FLAG switch; the text gives the same value as an apparent affinity of 2.2×10^-10 M
[9] = biological target: T1, anti-GCN4 (52SR4 scFv) sCAR with CD8 …; assay: flow cytometry of CD8 sCAR T cells stained with AF488-conjugated PNE; filled histogram against a dashed control histogram
[10] = biological target: T3, anti-GCN4 (52SR4 scFv) sCAR with IgG4m hinge; assay: flow cytometry competition on CAR-T cells with the GCN4 CAR (SEQ ID NO. 74): 1 nM labelled GCN4 peptide (GCN4-AF488) as competitor, unlabelled peptide titrated, MFI of the labelled peptide read
T3 construct: disulfide dimer by western blot; also called short-dimeric sCAR; IgG4m sCAR
T3 chain: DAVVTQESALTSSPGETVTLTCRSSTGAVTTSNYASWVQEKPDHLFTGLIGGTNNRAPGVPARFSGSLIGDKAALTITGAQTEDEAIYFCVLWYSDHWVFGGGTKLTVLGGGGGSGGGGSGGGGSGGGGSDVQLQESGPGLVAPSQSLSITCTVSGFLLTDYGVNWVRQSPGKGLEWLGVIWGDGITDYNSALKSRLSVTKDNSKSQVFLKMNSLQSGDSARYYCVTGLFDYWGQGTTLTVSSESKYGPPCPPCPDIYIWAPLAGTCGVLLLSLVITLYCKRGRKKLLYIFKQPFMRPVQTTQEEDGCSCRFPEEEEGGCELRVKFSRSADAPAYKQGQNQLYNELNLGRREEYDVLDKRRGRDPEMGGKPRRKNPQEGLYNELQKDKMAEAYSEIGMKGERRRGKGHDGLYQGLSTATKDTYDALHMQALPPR
Text: Un-labelled peptide binding efficiency was indirectly shown by measuring the mean fluorescence intensity (MFI) staining with the labelled peptide.
Cells were then washed twice with cold PBS to remove the free labelled peptide before being analyzed using the BD Accuri flow cytometer.

B1: anti-CD19 (FMC63) IgG LCC1 switch (antibody)
light: DIQMTQTTSSLSASLGDRVTISCRASQDISKYLNWYQQKPDGTVKLLIYHTSRLHSGVPSRFSGSGSGTDYSLTISNLEQEDIATYFCQQGNTLPYTFGGGTKLEIKRTVAAPSVFIFPPSDEQLKSGTASVVCLLNNFYPREAKVQWKVDNALQSGNSQESVTEQDSGGGGSNYHLENEVARLKKLGGGGSDSTYSLSSTLTLSKADYEKHKVYACEVTHQGLSSPVTKSFNRGEC
heavy: EVKLQESGPGLVAPSQSLSVTCTVSGVSLPDYGVSWIRQPPRKGLEWLGVIWGSETTYYNSALKSRLTIIKDNSKSQVFLKMNSLQTDDTAIYYCAKHYYYGGSYAMDYWGQGTSVTVSSASTKGPSVFPLAPSSKSTSGGTAALGCLVKDYFPEPVTVSWNSGALTSGVHTFPAVLQSSGLYSLSSVVTVPSSSLGTQTYICNVNHKPSNTKVDKKVEPKSCDKTHTCPPCPAPPVAGPSVFLFPPKPKDTLMISRTPEVTCVVVDVSHEDPEVKFNWYVDGVEVHNAKTKPREEQYNSTYRVVSVLTVLHQDWLNGKEYKCKVSNKGLPSSIEKTISKAKGQPREPQVYTLPPSRDELTKNQVSLTCLVKGFYPSDIAVEWESNGQPENNYKTTPPVLDSDGSFFLYSKLTVDKSRWQQGNVFSCSVMHEALHNHYTQKSLSLSPGK
notes: also called LCC1 IgG; IgG (FcNull) switch
[1]
  binding result: binds

B2: anti-CD19 (FMC63) Fab LCNT switch (Fab, V domains shown)
VH: EVKLQESGPGLVAPSQSLSVTCTVSGVSLPDYGVSWIRQPPRKGLEWLGVIWGSETTYYNSALKSRLTIIKDNSKSQVFLKMNSLQTDDTAIYYCAKHYYYGGSYAMDYWGQGTSVTVSS
VL: DIQMTQTTSSLSASLGDRVTISCRASQDISKYLNWYQQKPDGTVKLLIYHTSRLHSGVPSRFSGSGSGTDYSLTISNLEQEDIATYFCQQGNTLPYTFGGGTKLEIKR
notes: also called LCNT Fab
[2]
  EC50 (read off the curve): ~2000 pM

B3: anti-CD22 (clone hLL2) Fab CTBV switch (Fab)
light: DIQLTQSPSSLSASVGDRVTMSCKSSQSVLYSANHKNYLAWYQQKPGKAPKLLIYWASTRESGVPSRFSGSGSGTDFTFTISSLQPEDIATYYCHQYLSSWTFGGGTKLEIKRTVAAPSVFIFPPSDEQLKSGTASVVCLLNNFYPREAKVQWKVDNALQSGNSQESVTEQDSKDSTYSLSSTLTLSKADYEKHKVYACEVTHQGLSSPVTKSFNRGECGGGGSNYHLENEVARLKKL
heavy: QVQLVQSGAEVKKPGSSVKVSCKASGYTFTSYWLHWVRQAPGQGLEWIGYINPRNDYTEYNQNFKDKATITADESTNTAYMELSSLRSEDTAFYFCARRDITTFYWGQGTTVTVSSARTKGPSVFPLAPSSKSTSGGTAALGCLVKDYFPEPVTVSWNSGALTSGVHTFPAVLQSSGLYSLSSVVTVPSSSLGTQTYICNVNHKPSNTKVDKKVEPKSCGGGGSNYHLENEVARLKKL
CD22 [3]
  EC50 of cytotoxicity: 69.1 pM
CD22 [4]
  cytotoxicity at 0.01 pM: 1.34
  cytotoxicity at 0.1 pM: 0.18
  cytotoxicity at 1 pM: 1.38
  cytotoxicity at 10 pM: 4.1
  cytotoxicity at 100 pM: 28.2
  cytotoxicity at 1000 pM: 46.9
  cytotoxicity at 10000 pM: 44.2
CD22 [5]
  cytotoxicity at 0.01 pM: 4.6
  cytotoxicity at 0.1 pM: 3.6
  cytotoxicity at 10 pM: 10.4
  cytotoxicity at 100 pM: 42.2
  cytotoxicity at 1000 pM: 47.4
  cytotoxicity at 10000 pM: 44.9
CD22 [6]
  EC50 of cytotoxicity: 28.8 pM
CD22 [7]
  EC50 of cytotoxicity: 55.5 pM
CD22 [8]
  cytotoxicity at 0.06 pM: -3.84
  cytotoxicity at 0.30 pM: -0.28
  cytotoxicity at 1.52 pM: -4.59
  cytotoxicity at 7.62 pM: 0.02
  cytotoxicity at 38.10 pM: 6.77
  cytotoxicity at 952.40 pM: 21.7
  cytotoxicity at 4762.00 pM: 24.3

B4: anti-FLAG monoclonal antibody (clone: 5B3) (antibody, V domains shown)
VH: EVQLQQSGAELVKPGASVKLSCTASGFNIKDYYMHWVKQRTEQGLEWIGRIDPEDGETKYAPKFQGKATITADTSSKTAYLQLSSLTSEDTAVYYCARLKGGYWGQGTTLTVSS
VL: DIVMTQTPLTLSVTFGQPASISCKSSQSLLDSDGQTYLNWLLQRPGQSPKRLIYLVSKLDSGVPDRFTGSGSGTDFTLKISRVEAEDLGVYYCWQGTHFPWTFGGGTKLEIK
notes: Mouse hybridoma antibody
anti-Her2-FLAG switch
  EC50: 220 pM

## NYHLENEVARLKKL (not fully specified, also called PNE) [yeast transcription factor GCN4 minimal binding peptide NYHLENEVARLKKL]
[9]
  binding result: binds
[10]
  binding result: binds
